Consider 167 variants from the RNAGym collection of RNA variant scans (doi:10.7554/elife.90254).

The chains are these.
B1: OR4K15 (parent)
chain: GUUAACGGUCAUAGGCCAUGGAAACUAGGAGCACCAUUUCGCUGCCAGUGAAGAAAUGAACAAAGAAAAUCUGGGCCAGGCAGGCAUCAAAAGAAAUAGUCUUGCGCUCAACCAGAAAGUCUGUAAUCAUUUUAAGGGUA

Variants of B1 are the subject of this data set. The data set is described as follows: self-cleavage, relative activity (ratio to wild type); higher = more cleavage; in vitro, sequencing; the parent is a self-cleaving ribozyme.
On to A96G A117U, for which the self-cleavage came out at 0.89.

As to U97A U133C, the self-cleavage came to 2.13.

U97C A117G: the self-cleavage was found to be 2.06.

A96U U127C: the self-cleavage worked out at 1.7.

U97A A111G: the self-cleavage amounted to 0.03.

As to U97C U103C, the self-cleavage is 0.58.

Consider G99A U102A, for which the self-cleavage worked out at 0.1.

Consider A96G A140G, for which the self-cleavage was 1.47.

Consider A98U U124C, for which the self-cleavage stood at 2.17.

As for U100A A134G, the self-cleavage was 0.37.

In the case of A96U U97C, the self-cleavage worked out at 1.9.

As for G99U A129G, the self-cleavage stood at 0.13.

In the case of U97C A125G, the self-cleavage turned out to be 0.31.

For the variant A98G A125G, the self-cleavage was determined as 0.13.

For U97A U139A, the self-cleavage came to 1.2.

In the case of A96G U132C, the self-cleavage was determined as 1.21.

Turning to A96G U132G, the self-cleavage turned out to be 1.85.

Take A98G U133A: the self-cleavage was 0.24.

For the variant A98G U133C, the self-cleavage is 0.65.

Regarding A98G U139G, the self-cleavage was determined as 0.86.

As to A98G U139C, the self-cleavage came to 0.5.

As for U97C G115U, the self-cleavage worked out at 0.03.

For the variant A96G G138U, the self-cleavage stood at 1.33.

As for G99A U131C, the self-cleavage was 0.42.

Take U100C G137A: the self-cleavage amounted to 2.22.

For the variant A96U U132G, the self-cleavage was 1.55.

In the case of U97C A126U, the self-cleavage was found to be 0.44.

For A96U C113U, the self-cleavage came to 0.04.

Take U97A A125G: the self-cleavage was 0.86.

Consider U97C U122C, for which the self-cleavage is 1.21.

Consider A96G A125U, for which the self-cleavage was determined as 1.42.

In the case of A96G A125G, the self-cleavage amounted to 0.69.

As for A96G U130C, the self-cleavage was 0.97.

In the case of U100C U120C, the self-cleavage was 2.65.

On to A96C A126G, for which the self-cleavage came out at 0.77.

Regarding U100C U108C, the self-cleavage came out at 0.01.

Consider U100C A134U, for which the self-cleavage worked out at 2.45.

With U97A A114G, the self-cleavage was found to be 0.64.

Turning to A96U U130C, the self-cleavage amounted to 1.13.

As for A96U G106A, the self-cleavage stood at 0.01.

For U100C U122A, the self-cleavage is 2.11.

Regarding U100C U122G, the self-cleavage was determined as 2.48.

Regarding U100C U122C, the self-cleavage is 1.66.

With A98G A117G, the self-cleavage is 0.81.

In the case of A98G A140G, the self-cleavage was 0.69.

Regarding U100C, the self-cleavage was found to be 2.09.

For U100A, the self-cleavage is 0.61.

Regarding U100A U131C, the self-cleavage is 0.36.

Take U100C G123A: the self-cleavage was 2.36.

Turning to U100C G123U, the self-cleavage was 2.81.

In the case of G99A C113U, the self-cleavage turned out to be 0.05.

For the variant A96G U127A, the self-cleavage turned out to be 2.73.

For the variant A96G U127C, the self-cleavage stood at 0.58.

In the case of U100C U127C, the self-cleavage was 1.61.

Take U97A U131C: the self-cleavage worked out at 1.62.

For A98G A118G, the self-cleavage was determined as 0.26.

As for A96G U108G, the self-cleavage stood at 0.03.

Turning to U97A A98U, the self-cleavage is 2.29.

For the variant A98G A116G, the self-cleavage turned out to be 0.12.

With U100C U132C, the self-cleavage is 2.14.

Consider A96U A118G, for which the self-cleavage turned out to be 1.17.

In the case of U100C A140U, the self-cleavage was determined as 2.24.

U100C A140G: the self-cleavage worked out at 2.28.

As to A96G A110C, the self-cleavage worked out at 0.15.

A96C U132C: the self-cleavage came to 0.83.

In the case of G99A U132A, the self-cleavage turned out to be 0.23.

Turning to U97C U102C, the self-cleavage worked out at 2.38.

On to U97C U102A, for which the self-cleavage was determined as 0.47.

Regarding U100A U124C, the self-cleavage amounted to 0.18.

On to A98G A114U, for which the self-cleavage was determined as 0.02.

A96G A111U: the self-cleavage turned out to be 0.11.

Regarding A96G A111G, the self-cleavage was 0.02.

For the variant A96C A118G, the self-cleavage was 0.95.

Turning to A98U A111G, the self-cleavage stood at 0.01.

As for U97A A117G, the self-cleavage stood at 2.09.

For A96G U97A, the self-cleavage is 0.94.

As to A96G U97C, the self-cleavage was 0.99.

Take A96G G106C: the self-cleavage worked out at 0.02.

Regarding A96G G106U, the self-cleavage was found to be 0.01.

On to U100C C107G, for which the self-cleavage was determined as 0.01.

Take A96G U100C: the self-cleavage was 2.42.

On to U100C A118G, for which the self-cleavage worked out at 1.11.

Consider U100C A118U, for which the self-cleavage is 0.77.

A98G G104A: the self-cleavage was 0.01.

For A98U G115A, the self-cleavage is 0.1.

In the case of A96C U102C, the self-cleavage worked out at 2.16.

In the case of A96C A117G, the self-cleavage was determined as 1.87.

A96G A98U: the self-cleavage stood at 2.3.

Turning to A96G A98G, the self-cleavage came to 0.91.

For the variant A96G A98C, the self-cleavage was determined as 0.63.

Regarding U97C G123A, the self-cleavage worked out at 1.14.

In the case of U97C U130A, the self-cleavage was 0.78.

Turning to A96C G104A, the self-cleavage is 0.02.

On to U100C G115U, for which the self-cleavage worked out at 0.71.

Turning to U100C A129U, the self-cleavage was determined as 1.49.

Take A98G U124A: the self-cleavage came out at 0.07.

Consider U97C A98C, for which the self-cleavage came to 0.75.

For A98G A129G, the self-cleavage amounted to 0.17.

In the case of A98G A129U, the self-cleavage stood at 0.3.

A98G A126G: the self-cleavage amounted to 0.34.

Regarding A96U A126G, the self-cleavage came to 1.58.

On to G99A A117G, for which the self-cleavage turned out to be 0.36.

Turning to U97A A140G, the self-cleavage was 1.98.

On to A96G A126U, for which the self-cleavage turned out to be 1.49.

Turning to A96U A125G, the self-cleavage turned out to be 0.61.

Take A96C A116G: the self-cleavage was 0.33.

With U100C A126G, the self-cleavage was 1.86.

Consider U100C A114U, for which the self-cleavage is 0.16.

For U100C A114G, the self-cleavage worked out at 1.34.

Turning to A96G A116U, the self-cleavage was 0.24.

Turning to A96U U102A, the self-cleavage was found to be 1.08.

Take A96U U102C: the self-cleavage came out at 2.54.

For A96G A114G, the self-cleavage was determined as 0.44.

On to U100C C109U, for which the self-cleavage came out at 0.89.

On to A98C A117G, for which the self-cleavage is 2.47.

U97C A134U: the self-cleavage is 1.69.

As to U100C C105U, the self-cleavage was found to be 0.33.

Take A98G A135G: the self-cleavage came out at 0.83.

Regarding A96U G138U, the self-cleavage came to 1.75.

A98G U103C: the self-cleavage turned out to be 0.05.

In the case of A96C U103C, the self-cleavage was found to be 0.9.

Consider A98G A111G, for which the self-cleavage came to 0.01.

Regarding A96G U124C, the self-cleavage was 1.22.

In the case of U100A C113U, the self-cleavage was found to be 0.11.

Take A96G G136A: the self-cleavage is 2.06.

As for U100C U102C, the self-cleavage amounted to 1.62.

In the case of A96G U103C, the self-cleavage stood at 1.27.

On to A98G U127C, for which the self-cleavage came out at 0.39.

For the variant U100C U130C, the self-cleavage worked out at 2.02.

For the variant G99A A111G, the self-cleavage worked out at 0.02.

Turning to U100C A111G, the self-cleavage came out at 0.01.

In the case of G99A U130C, the self-cleavage turned out to be 0.13.

Turning to A98G U122A, the self-cleavage came out at 0.57.

Turning to A98G U122C, the self-cleavage is 0.34.

Take U97A: the self-cleavage was 1.75.

Turning to U97C, the self-cleavage was found to be 0.71.

Turning to U97G, the self-cleavage is 1.77.

As to U100C A116C, the self-cleavage was 0.97.

On to U100C A116G, for which the self-cleavage stood at 1.32.

For the variant A98G G99U, the self-cleavage is 1.42.

Consider A96G A118U, for which the self-cleavage is 0.79.

In the case of U100C A110G, the self-cleavage was 0.32.

Consider U100C A110C, for which the self-cleavage came out at 1.12.

For U100C U131C, the self-cleavage is 2.14.

For A98U U131C, the self-cleavage was determined as 2.12.

In the case of U100A A129G, the self-cleavage came out at 0.23.

For the variant A98U U122C, the self-cleavage is 2.

Regarding A96C U130C, the self-cleavage turned out to be 0.69.

On to A96G C109A, for which the self-cleavage came out at 0.37.

For A98G U102A, the self-cleavage was determined as 0.15.

A98U A118G: the self-cleavage came out at 1.83.

For the variant A96C U100C, the self-cleavage was determined as 2.01.

Consider A96C U100A, for which the self-cleavage is 0.96.

Turning to A96G C121U, the self-cleavage was 2.57.

U100A U139C: the self-cleavage was determined as 0.83.

Take U97C A114G: the self-cleavage is 0.13.

Turning to A98G U108C, the self-cleavage worked out at 0.

In the case of A96U A129G, the self-cleavage was found to be 1.36.

Take A96G C113G: the self-cleavage worked out at 0.02.

As to A96G U131C, the self-cleavage came to 1.73.

As to U97G U127C, the self-cleavage was found to be 0.49.

Take U100C U139A: the self-cleavage came out at 2.28.

For G99A U120C, the self-cleavage came to 0.26.

With U97C U120A, the self-cleavage amounted to 0.31.

Consider U97C A110U, for which the self-cleavage was found to be 1.02.

Regarding U97C A111U, the self-cleavage worked out at 0.07.

For U97C A111G, the self-cleavage turned out to be 0.02.
